# From article doi:10.1101/2021.05.10.443400 (bioRxiv, 2021)
# Key:
# [1] = target: T1, Human MutSα (MSH2-MSH6 complex), purified (human, UniProt P43246 1-934; P52701 1-1360); assay: pull-down
# [2] = target: T1, Human MutSα (MSH2-MSH6 complex), …; assay: co-IP
# T1 sequence (P43246 whole entry, chain 1 of 2): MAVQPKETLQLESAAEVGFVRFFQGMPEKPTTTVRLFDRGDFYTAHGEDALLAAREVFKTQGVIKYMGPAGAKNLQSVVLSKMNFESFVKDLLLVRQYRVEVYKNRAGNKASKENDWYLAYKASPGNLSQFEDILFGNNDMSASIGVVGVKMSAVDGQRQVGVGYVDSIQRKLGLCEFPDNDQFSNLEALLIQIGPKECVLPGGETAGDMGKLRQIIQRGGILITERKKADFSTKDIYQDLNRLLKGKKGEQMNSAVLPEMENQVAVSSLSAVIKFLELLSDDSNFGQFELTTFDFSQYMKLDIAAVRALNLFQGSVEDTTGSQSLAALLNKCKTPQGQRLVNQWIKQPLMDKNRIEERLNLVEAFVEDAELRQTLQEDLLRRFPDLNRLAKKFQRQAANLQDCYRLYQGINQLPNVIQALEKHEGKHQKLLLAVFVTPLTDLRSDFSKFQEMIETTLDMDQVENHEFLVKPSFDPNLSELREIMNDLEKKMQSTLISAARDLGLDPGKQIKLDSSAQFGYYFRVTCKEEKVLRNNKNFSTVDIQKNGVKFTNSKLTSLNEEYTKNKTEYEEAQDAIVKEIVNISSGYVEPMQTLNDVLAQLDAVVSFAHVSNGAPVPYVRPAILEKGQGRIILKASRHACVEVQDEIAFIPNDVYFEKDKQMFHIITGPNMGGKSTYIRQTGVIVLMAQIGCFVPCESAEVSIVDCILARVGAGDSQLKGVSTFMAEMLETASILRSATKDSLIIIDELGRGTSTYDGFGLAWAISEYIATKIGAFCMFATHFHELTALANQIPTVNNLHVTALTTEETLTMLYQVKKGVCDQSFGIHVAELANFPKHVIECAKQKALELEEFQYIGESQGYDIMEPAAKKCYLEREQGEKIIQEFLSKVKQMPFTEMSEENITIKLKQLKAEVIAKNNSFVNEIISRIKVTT
# T1 sequence (P52701 whole entry, chain 2 of 2): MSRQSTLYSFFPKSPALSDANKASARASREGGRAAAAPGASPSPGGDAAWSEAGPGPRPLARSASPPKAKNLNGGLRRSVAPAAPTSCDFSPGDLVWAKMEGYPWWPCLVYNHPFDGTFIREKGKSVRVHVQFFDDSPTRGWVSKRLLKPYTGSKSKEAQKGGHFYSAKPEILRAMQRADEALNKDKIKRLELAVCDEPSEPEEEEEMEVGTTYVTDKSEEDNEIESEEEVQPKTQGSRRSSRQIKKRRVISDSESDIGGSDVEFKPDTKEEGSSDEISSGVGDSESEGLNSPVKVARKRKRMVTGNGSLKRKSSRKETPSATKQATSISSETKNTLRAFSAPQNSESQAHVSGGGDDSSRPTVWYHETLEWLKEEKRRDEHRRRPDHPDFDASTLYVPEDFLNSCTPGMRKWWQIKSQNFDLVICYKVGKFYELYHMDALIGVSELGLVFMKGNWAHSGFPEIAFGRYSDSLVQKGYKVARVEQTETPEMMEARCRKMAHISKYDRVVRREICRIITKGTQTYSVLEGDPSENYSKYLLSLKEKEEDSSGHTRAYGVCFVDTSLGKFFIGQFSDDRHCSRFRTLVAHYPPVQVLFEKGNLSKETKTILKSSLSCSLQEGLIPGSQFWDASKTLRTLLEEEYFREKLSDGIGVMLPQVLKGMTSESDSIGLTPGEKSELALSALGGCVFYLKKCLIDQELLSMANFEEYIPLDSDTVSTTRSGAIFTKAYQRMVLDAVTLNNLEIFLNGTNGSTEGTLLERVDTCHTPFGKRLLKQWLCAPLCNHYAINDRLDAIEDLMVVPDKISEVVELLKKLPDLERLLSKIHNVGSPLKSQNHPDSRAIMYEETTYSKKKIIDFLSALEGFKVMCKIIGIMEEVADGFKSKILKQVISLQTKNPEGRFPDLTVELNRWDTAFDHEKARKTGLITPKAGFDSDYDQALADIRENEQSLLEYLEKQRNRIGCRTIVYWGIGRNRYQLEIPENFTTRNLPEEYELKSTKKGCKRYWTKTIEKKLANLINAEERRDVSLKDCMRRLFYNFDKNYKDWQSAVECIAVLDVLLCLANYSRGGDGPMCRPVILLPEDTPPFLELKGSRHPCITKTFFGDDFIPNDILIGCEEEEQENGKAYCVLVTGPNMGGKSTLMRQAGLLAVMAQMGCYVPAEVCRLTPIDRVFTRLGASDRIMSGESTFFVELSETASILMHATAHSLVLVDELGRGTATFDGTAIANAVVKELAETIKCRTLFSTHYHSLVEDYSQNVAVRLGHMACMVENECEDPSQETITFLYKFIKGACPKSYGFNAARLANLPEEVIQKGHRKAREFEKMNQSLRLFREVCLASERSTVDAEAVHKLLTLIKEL
Binder,binding result [1],binding result [2]
"Human GST-Flag-Orc6, full length (natural protein, UniProt Q9Y5N6 1-252, looked up) MGSELIGRLAPRLGLAEPDMLRKAEEYLRLSRVKCVGLSARTTETSSAVMCLDLAASWMKCPLDRAYLIKLSGLNKETYQSCLKSFECLLGLNSNIGIRDLAVQFSCIEAVNMASKILKSYESSLPQTQQVDLDLSRPLFTSAALLSACKILKLKVDKNKMVATSGVKKAIFDRLCKQLEKIGQQVDREPGDVATPPRKRKKIVVEAPAKEMEKVEEMPHKPQKDEDLTQDYEEWKRKILENAASAQKATAE",binds,
"GST-Flag-Orc6 middle TFIIB (TFIIB-B) domain (94-187) (domain or fragment, human, UniProt Q9Y5N6 94-187, looked up) SNIGIRDLAVQFSCIEAVNMASKILKSYESSLPQTQQVDLDLSRPLFTSAALLSACKILKLKVDKNKMVATSGVKKAIFDRLCKQLEKIGQQVD",binds,
"Human Flag-MutLα (MLH1-PMS2 complex), purified (complex) chain 1: MSFVAGVIRRLDETVVNRIAAGEVIQRPANAIKEMIENCLDAKSTSIQVIVKEGGLKLIQIQDNGTGIRKEDLDIVCERFTTSKLQSFEDLASISTYGFRGEALASISHVAHVTITTKTADGKCAYRASYSDGKLKAPPKPCAGNQGTQITVEDLFYNIATRRKALKNPSEEYGKILEVVGRYSVHNAGISFSVKKQGETVADVRTLPNASTVDNIRSIFGNAVSRELIEIGCEDKTLAFKMNGYISNANYSVKKCIFLLFINHRLVESTSLRKAIETVYAAYLPKNTHPFLYLSLEISPQNVDVNVHPTKHEVHFLHEESILERVQQHIESKLLGSNSSRMYFTQTLLPGLAGPSGEMVKSTTSLTSSSTSGSSDKVYAHQMVRTDSREQKLDAFLQPLSKPLSSQPQAIVTEDKTDISSGRARQQDEEMLELPAPAEVAAKNQSLEGDTTKGTSEMSEKRGPTSSNPRKRHREDSDVEMVEDDSRKEMTAACTPRRRIINLTSVLSLQEEINEQGHEVLREMLHNHSFVGCVNPQWALAQHQTKLYLLNTTKLSEELFYQILIYDFANFGVLRLSEPAPLFDLAMLALDSPESGWTEEDGPKEGLAEYIVEFLKKKAEMLADYFSLEIDEEGNLIGLPLLIDNYVPPLEGLPIFILRLATEVNWDEEKECFESLSKECAMFYSIRKQYISEESTLSGQQSEVPGSIPNSWKWTVEHIVYKALRSHILPPKHFTEDGNILQLANLPDLYKVFERC chain 2: MERAESSSTEPAKAIKPIDRKSVHQICSGQVVLSLSTAVKELVENSLDAGATNIDLKLKDYGVDLIEVSDNGCGVEEENFEGLTLKHHTSKIQEFADLTQVETFGFRGEALSSLCALSDVTISTCHASAKVGTRLMFDHNGKIIQKTPYPRPRGTTVSVQQLFSTLPVRHKEFQRNIKKEYAKMVQVLHAYCIISAGIRVSCTNQLGQGKRQPVVCTGGSPSIKENIGSVFGQKQLQSLIPFVQLPPSDSVCEEYGLSCSDALHNLFYISGFISQCTHGVGRSSTDRQFFFINRRPCDPAKVCRLVNEVYHMYNRHQYPFVVLNISVDSECVDINVTPDKRQILLQEEKLLLAVLKTSLIGMFDSDVNKLNVSQQPLLDVEGNLIKMHAADLEKPMVEKQDQSPSLRTGEEKKDVSISRLREAFSLRHTTENKPHSPKTPEPRRSPLGQKRGMLSSSTSGAISDKGVLRPQKEAVSSSHGPSDPTDRAEVEKDSGHGSTSVDSEGFSIPDTGSHCSSEYAASSPGDRGSQEHVDSQEKAPKTDDSFSDVDCHSNQEDTGCKFRVLPQPTNLATPNTKRFKKEEILSSSDICQKLVNTQDMSASQVDVAVKINKKVVPLDFSMSSLAKRIKQLHHEAQQSEGEQNYRKFRAKICPGENQAAEDELRKEISKTMFAEMEIIGQFNLGFIITKLNEDIFIVDQHATDEKYNFEMLQQHTVLQGQRLIAPQTLNLTAVNEAVLIENLEIFRKNGFDFVIDENAPVTERAKLISLPTSKNWTFGPQDVDELIFMLSDSPGVMCRPSRVKQMFASRACRKSVMIGTALNTSEMKKLITHMGEMDHPWNCPHGRPTMRHIANLGVISQN",,binds
